Laboratory results reported in patent publication US20230302104A1, “TREATMENT AND/OR PREVENTION OF A DISEASE OR A SYNDROME RELATED TO A VIRUS INFECTION” (priority 2020, published 2023).

Key:
[1] = biological target: T1, furin (Homo sapiens, UniProt P09958); conditions: Jean et al. 1998; cited from earlier work
T1 construct: purchased NEB

[2] = test system: SARS-CoV-2 spike pseudotyped lentivirus entry in HeLa cells expressing ACE2 only; type: cell-based; conditions: 10 µM
[3] = test system: IFNγ-mediated activation of human microglial HMC3-MHCII^Luc cells; assay: IFNγ-mediated microglial activation, MHCII-driven luciferase; type: cell-based; conditions: MHCII-driven luciferase normalized to cell viability, FIG. 19
[4] = test system: MERS-CoV pseudovirus entry in Caco2 human colorectal adenocarcinoma cells; type: cell-based
[5] = biological target: T1, furin; type: biochemical; conditions: 45 min
[6] = test system: trypsin; type: biochemical; conditions: 45 min
[7] = biological target: T2, PC1 (Homo sapiens, UniProt P29120); type: biochemical; conditions: 45 min
T2 construct: purchased R&D Systems
T2 sequence (P29120 111-753): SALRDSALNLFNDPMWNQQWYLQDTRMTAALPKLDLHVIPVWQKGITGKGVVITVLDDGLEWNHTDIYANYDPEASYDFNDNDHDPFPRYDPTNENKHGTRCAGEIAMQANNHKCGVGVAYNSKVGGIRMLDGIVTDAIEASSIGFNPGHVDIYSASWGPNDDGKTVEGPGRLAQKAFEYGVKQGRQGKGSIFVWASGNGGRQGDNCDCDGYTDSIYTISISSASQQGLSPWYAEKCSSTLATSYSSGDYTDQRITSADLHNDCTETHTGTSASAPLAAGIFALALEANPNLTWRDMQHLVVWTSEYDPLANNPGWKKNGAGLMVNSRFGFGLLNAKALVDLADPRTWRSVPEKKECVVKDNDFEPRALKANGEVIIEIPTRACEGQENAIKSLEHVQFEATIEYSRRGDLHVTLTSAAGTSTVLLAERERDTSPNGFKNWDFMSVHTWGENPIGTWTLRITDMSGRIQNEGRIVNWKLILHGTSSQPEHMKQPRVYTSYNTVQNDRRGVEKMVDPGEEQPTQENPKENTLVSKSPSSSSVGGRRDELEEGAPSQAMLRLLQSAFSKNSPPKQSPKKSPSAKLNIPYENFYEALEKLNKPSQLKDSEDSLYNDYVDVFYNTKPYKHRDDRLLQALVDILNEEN

[8] = biological target: T3, matriptase (Homo sapiens, UniProt Q9Y5Y6); type: biochemical; conditions: 45 min
T3 construct: purchased R&D Systems
T3 sequence (Q9Y5Y6 1-855): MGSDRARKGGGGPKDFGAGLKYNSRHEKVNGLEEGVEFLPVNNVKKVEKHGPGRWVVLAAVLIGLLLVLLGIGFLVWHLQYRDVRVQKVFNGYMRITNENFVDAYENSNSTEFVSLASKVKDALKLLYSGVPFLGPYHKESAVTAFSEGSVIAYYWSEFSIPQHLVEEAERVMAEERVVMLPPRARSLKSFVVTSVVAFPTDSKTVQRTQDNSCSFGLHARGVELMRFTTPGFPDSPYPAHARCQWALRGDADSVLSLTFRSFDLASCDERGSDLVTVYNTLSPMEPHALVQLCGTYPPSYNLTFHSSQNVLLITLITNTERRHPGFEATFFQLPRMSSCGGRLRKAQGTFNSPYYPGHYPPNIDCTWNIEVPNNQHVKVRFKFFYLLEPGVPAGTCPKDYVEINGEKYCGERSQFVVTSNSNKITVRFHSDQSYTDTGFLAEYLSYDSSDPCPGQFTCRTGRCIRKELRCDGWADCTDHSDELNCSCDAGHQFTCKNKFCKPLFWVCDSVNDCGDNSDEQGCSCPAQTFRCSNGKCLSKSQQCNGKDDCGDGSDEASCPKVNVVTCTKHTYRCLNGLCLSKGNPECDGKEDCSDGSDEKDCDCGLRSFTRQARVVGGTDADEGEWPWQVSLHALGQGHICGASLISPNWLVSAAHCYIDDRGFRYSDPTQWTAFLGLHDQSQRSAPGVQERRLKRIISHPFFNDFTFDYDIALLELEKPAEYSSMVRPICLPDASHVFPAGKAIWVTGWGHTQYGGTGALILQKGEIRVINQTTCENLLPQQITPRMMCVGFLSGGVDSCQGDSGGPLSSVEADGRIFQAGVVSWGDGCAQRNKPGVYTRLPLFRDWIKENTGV

[9] = biological target: T4, cathepsin L (Homo sapiens, UniProt P07711); type: biochemical; conditions: 45 min
T4 construct: purchased R&D Systems
T4 sequence (P07711 114-333): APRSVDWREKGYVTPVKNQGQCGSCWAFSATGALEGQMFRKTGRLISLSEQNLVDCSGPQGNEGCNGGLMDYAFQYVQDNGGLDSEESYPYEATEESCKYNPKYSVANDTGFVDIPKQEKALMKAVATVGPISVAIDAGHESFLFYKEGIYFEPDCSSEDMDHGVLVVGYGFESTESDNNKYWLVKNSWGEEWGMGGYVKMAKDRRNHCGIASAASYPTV

[10] = biological target: T5, TMPRSS2 (Homo sapiens, UniProt O15393); type: biochemical; conditions: 45 min
T5 construct: purchased creative biomart
T5 sequence (O15393 whole entry): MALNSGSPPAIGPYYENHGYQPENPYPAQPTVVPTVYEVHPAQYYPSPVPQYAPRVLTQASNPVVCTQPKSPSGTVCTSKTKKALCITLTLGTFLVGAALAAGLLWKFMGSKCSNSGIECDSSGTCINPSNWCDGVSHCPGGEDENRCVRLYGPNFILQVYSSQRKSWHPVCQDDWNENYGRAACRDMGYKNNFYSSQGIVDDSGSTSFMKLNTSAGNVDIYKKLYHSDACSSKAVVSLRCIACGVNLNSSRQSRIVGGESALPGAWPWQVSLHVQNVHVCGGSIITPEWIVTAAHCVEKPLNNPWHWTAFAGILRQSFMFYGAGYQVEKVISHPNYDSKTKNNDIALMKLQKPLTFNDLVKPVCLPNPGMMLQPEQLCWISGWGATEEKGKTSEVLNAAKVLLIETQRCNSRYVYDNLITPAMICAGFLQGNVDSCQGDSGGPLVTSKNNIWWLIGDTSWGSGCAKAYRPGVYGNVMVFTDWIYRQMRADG

[11] = test system: ACE2/SARS-CoV-2 spike mediated cell fusion of HeLa cells; type: cell-based, human; conditions: 24 h
[12] = biological target: T6, elastase (ELA1) from pig pancreas (Sus scrofa, UniProt P00772); type: biochemical
T6 construct: elastase (ELA1) from pig pancreas 0.25U/mL; purchased molecular probes (Sigma-Aldrich) E-12056; host or cells: pig pancreas
T6 sequence (P00772 27-266): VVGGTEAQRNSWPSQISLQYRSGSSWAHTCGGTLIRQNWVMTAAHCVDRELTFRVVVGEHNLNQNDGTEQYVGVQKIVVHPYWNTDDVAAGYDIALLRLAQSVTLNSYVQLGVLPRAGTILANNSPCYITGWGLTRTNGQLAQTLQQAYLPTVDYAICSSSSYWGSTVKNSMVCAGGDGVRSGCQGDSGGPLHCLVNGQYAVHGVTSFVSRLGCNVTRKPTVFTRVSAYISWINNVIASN

[13] = biological target: T7, cathepsin B (Homo sapiens, UniProt P07858); type: biochemical; conditions: 45 min
T7 construct: purchased R&D Systems

T1 sequence (P09958 108-794): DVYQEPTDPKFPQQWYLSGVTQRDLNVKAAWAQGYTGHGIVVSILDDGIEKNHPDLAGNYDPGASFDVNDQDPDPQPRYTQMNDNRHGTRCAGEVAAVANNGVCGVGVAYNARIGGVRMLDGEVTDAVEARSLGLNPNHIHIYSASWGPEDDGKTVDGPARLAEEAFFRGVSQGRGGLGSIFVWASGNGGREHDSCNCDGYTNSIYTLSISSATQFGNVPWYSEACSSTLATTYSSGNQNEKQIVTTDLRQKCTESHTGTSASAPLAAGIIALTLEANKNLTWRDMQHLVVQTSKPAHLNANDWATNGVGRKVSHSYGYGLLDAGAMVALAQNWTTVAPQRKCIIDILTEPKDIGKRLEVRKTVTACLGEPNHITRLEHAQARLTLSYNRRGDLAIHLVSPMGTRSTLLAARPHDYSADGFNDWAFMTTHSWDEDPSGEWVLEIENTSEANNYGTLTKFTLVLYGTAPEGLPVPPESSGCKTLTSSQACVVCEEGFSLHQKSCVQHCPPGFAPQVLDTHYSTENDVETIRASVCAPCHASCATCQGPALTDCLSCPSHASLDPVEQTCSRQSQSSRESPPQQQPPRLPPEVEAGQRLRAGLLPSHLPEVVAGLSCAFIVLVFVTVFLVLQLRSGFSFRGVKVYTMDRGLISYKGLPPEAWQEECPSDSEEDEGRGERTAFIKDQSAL

Row | Substance | activity on furin [1] | inhibitory effect on SARS-CoV-2 pseudoviral cell-entry [2] | IFNγ-mediated microglial activation (inflammation) [3] | MERS-CoV pseudovirus entry [4] | furin protease activity [5] | trypsin protease activity [6] | PC1 protease activity [7] | IFNγ-mediated microglial activation (inflammation) ([3]; listed as recombinant AAT) | matriptase protease activity [8] | cathepsin L protease activity [9] | TMPRSS2 protease activity [10] | inhibitory effect on SARS-CoV-2 spike mediated cell fusion [11] | elastase protease activity [12] | cathepsin B protease activity [13]
1 | Alpha1-antitrypsin Portland | strong and selective activity | – | – | – | – | – | – | – | – | – | – | – | – | –
2 | plasma derived AAT | – | up to 25% | Effect is observed | – | – | – | – | – | – | – | – | – | – | –
3 | rhAAT | – | – | reduces inflammation | inhibits viral entry of several viruses | inhibits furin protease activity | inhibits trypsin protease activity | inhibits PC1 protease activity | Effect is observed | inhibits matriptase protease activity | inhibits cathepsin L protease activity | inhibits TMPRSS2 protease activity | more effectively than plasma derived AAT | inhibits elastase protease activity | inhibits cathepsin B protease activity
